Experimental data published in US20260055369A1, “METHOD FOR GENERATING CELLS OF THE T CELL LINEAGE WITH ENGINEERING BROADLY REACTIVE HUMAN NOTCH LIGAND” (H. Lee Moffitt Cancer Center and Research Institute, Inc., priority 2022, published 2026).

Legend:
[1] = system: hNotch1; assay: Notch signaling assay using multiple ligand-presentation formats (U2OS hNotch1-Gal4 luciferase); format: cell-based, human
Experimental: Notch activation was assayed in different formats (FIG. 14A) including (1) non-specific orientation (0.1 ng/mm^2 of Delta^MAX on well, FIG. 3A), (2) ligand-oriented coupling (10 nM of Delta^MAX on well, FIG. 3B), (3) magnetic beads coated with biotinylated Delta^MAX (ratio 1:20 reporter cells:beads, optimization of ratio is detailed in FIG. 14D), (4) HEK293T-expressing Delta^MAX (ratio 1:1, signal receivers:senders, optimization of ratio can be seen in FIG. 14C), and (5) yeast-expressing Delta^MAX (ratio 1:10, reporter:yeast, optimization of ratio is detailed in FIG. 14B). On day one, U2OS hNotch1-Gal4 cells were detached with trypsin-EDTA, counted in the microscope, and 5×10E5 cells/well transferred to 6-well tissue culture plates (Falcon). On day two, U2OS cells were transfected as described above. On day three, the different activation assays were set up at the same time. For ligand oriented-coupling, streptavidin plates were coated with 10 nM of Delta^MAX as described above. For non-specific adsorption, non-biotinylated Delta^MAX at 0.1 ng/mm was coated as described previously. For activation using streptavidin beads coated with biotinylated Delta^MAX, 200 mg of streptavidin beads (streptavidin MagneSphere paramagnetic particles, Promega) were washed 3 times with 200 μL of DPBS+0.1% BSA using a magnet (Miltenyi), and combined with 20 μg of biotinylated Delta^MAX for 1.5 hours at 4° C. Next, unbound Delta^MAX was washed out three times with 200 μL of DPBS+0.1% BSA, and 100 μL of complexed beads (pre-diluted 1/25 in DPBS) were added to wells. For co-culture activation with HEK293T-expressing Delta^MAX, cells were detached with trypsin-EDTA, quenched with DMEM media, washed with DPBS, and 100 μL containing 20,000 cells in DMEM were added to wells. For activation with yeast cells expressing Delta^MAX on surface, pYAL vector encoding for Delta^MAX (N-EGF5) was electroporated previously into yeast cells, and DLL4 expressed in SGCAA as previously described. Delta^MAX expression was induced 48 hours before Notch activation assay set up. One hundred microliters of yeast cells (2×10E6 cells/mL) in serum-free DMEM were added to the assay plate. Once all the wells contained the desired activation assays, U2OS reporter cells were detached with trypsin-EDTA, and 20,000 cells in 100 μL of DMEM were added per well. All the conditions were supplemented with 2 μg/mL of doxycycline to induce Notch1-Gal4 expression. The assay plate was incubated for 24 hours at 37° C. and 5% CO2. On day four, media was aspirated off and Luciferase Dual-Glo kit (Promega) used to detect firefly and Renilla signals in a luminometer (GloMax, Promega). Negative controls were BSA 0.5% for non-specific adsorption, streptavidin and BSA 2% for ligand oriented-coupling, uncoated streptavidin beads for activation with magnetic beads, HEK293T non-expressing DLL4 for co-culture activation, and yeast expressing PDL-1 ECD for co-culture with yeast. The expression of Delta^MAX in HEK293T and yeast cells was confirmed by flow cytometry (BD Accuri C6 plus) following staining for 1 hour at 4° C. with anti-hDLL4 PE antibody using DPBS+0.5% BSA, and selection buffer, respectively (FIG. 14E). Notch activation is represented as the mean fold-change over the corresponding control±s.d. of three independent biological replicates.

[2] = system: Notch1; assay: Notch activation with streptavidin-coated polystyrene beads (CHO-K1 N1-Gal4); format: cell-based; settings: 25 μm beads, ratio 1:1 with reporter cells
Experimental: Biotinylated WT DLL4 or Delta^MAX (26 μg) were coated in 1.33 mg of streptavidin-coated polystyrene beads for 1 hour at 4° C. in DPBS+0.1% BSA. The beads were washed three times with 500 μL of DPBS+0.1% BSA before and after coating. DLL4 pre-coated beads were counted in the microscope and 100 μL containing 30,000 beads combined in ratio 1:1 with 100 μL of α-MEM with CHO-K1 N1-Gal4 reporter cell lines in 96-well tissue culture plates. The plate was incubated for 24 hours at 37° C., 5% CO2, and Notch activation measure by flow cytometry. The data represent Notch activation as a function of mean fluorescent intensity±s.d. of three biological replicates.
Target sequence in this assay (P46531 295-488 limits assumed): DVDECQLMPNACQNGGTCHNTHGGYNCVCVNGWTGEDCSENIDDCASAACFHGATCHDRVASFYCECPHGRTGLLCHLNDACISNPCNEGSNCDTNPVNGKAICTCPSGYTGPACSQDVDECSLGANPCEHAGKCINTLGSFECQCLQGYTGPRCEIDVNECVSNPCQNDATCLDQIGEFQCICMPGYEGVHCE

[3] = system: Notch1; assay: Notch inhibition, U2OS luciferase reporter on WT DLL4 coated plates; format: cell-based, human; settings: plates coated with 50 nM WT DLL4, 10-fold dilutions from 3,000 nM
Experimental: (§1) For U2OS cells, on day one, 5×10^5 cells were plated in 6-well tissue culture plates. On day two, U2OS cells were transfected as described above. On day three, 96-well plates (Coastar) were coated with streptavidin and biotinylated WT DLL4 at 50 nM as described above. Next, U2OS reporter cells were detached with trypsin-EDTA and diluted at 200,000 cells/mL in DMEM media. Ten-fold serial dilutions of soluble DLL4 variants starting at 6,000 nM were prepared in DPBS and used to pre-block reports cells following the same protocol described above. Two-hundred microliters of inhibition reactions were added to 96-well plates pre-coated with biotinylated WT DLL4 ligand at 50 nM, and assay plates incubated for 24 hours at 37° C. and 5% CO2. On day fourth, luciferase signals were measured with Dual-Glo luciferase assay system (Promega) using a GloMax luminometer (Promega). Doxycycline at 2 μg/mL was maintained to […]. A ratio between firefly and Renilla luciferase was calculated, and Notch activation normalized to wells where inhibitors were non-added. The data represent fold-change of Notch activation as percentage, relative to Notch activation in the absence of inhibitors±s.d. of three independent biological replicates.
Target sequence in this assay (P46531 19-1664 limits assumed): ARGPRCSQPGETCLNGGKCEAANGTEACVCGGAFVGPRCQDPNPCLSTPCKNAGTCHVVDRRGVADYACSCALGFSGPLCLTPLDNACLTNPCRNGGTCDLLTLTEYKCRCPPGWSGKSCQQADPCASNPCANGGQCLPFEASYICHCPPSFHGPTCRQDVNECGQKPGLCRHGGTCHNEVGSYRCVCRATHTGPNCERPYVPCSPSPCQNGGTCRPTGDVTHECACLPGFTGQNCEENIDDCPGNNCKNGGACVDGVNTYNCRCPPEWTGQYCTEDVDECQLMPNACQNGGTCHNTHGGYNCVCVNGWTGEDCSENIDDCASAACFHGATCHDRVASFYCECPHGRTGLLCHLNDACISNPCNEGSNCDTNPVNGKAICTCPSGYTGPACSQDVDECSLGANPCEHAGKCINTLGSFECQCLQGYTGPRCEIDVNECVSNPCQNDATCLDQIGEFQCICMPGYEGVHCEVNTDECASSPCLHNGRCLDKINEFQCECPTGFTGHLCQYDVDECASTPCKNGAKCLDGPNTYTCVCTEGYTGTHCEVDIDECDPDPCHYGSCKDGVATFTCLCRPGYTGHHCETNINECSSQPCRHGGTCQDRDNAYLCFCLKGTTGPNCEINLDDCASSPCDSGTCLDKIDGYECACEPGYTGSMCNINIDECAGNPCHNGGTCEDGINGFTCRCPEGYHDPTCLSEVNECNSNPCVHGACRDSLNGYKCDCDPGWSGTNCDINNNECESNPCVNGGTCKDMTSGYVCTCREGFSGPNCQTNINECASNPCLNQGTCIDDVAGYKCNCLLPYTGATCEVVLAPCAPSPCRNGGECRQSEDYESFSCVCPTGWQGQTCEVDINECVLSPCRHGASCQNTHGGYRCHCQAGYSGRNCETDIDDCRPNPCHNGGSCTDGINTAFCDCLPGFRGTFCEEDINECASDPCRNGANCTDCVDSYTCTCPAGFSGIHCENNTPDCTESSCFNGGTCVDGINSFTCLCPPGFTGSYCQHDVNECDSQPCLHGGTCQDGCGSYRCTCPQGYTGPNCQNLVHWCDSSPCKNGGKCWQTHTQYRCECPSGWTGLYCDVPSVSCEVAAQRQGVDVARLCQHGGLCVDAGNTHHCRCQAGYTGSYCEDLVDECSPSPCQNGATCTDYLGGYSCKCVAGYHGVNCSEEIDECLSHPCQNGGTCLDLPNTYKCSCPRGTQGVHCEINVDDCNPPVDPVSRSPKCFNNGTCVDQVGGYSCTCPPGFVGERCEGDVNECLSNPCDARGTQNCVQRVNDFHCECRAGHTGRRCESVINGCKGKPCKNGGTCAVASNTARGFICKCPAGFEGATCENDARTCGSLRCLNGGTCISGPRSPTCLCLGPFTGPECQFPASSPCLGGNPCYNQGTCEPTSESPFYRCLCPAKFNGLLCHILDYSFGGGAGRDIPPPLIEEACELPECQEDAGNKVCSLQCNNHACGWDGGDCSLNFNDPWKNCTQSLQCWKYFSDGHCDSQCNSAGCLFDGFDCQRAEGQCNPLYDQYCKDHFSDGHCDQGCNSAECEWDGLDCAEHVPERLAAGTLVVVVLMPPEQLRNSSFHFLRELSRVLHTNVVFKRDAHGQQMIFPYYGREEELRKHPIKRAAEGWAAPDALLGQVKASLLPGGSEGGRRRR
Target sequence in this assay (P46531 1665-1756 limits assumed): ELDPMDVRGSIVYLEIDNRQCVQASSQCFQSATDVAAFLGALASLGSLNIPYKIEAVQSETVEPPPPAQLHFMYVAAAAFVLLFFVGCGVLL

[4] = system: Notch2; assay: as above; format: cell-based, human; settings: plates coated with 50 nM WT DLL4, 10-fold dilutions from 3,000 nM
Experimental: as §1

[5] = system: Notch3; assay: as above; format: cell-based, human; settings: plates coated with 50 nM WT DLL4, 10-fold dilutions from 3,000 nM
Experimental: as §1

Sequence of hNotch1 (P46531 19-1664 limits assumed): as the sequence (P46531 19-1664 limits assumed) above
Sequence of hNotch1 (P46531 1665-1756 limits assumed): as the sequence (P46531 1665-1756 limits assumed) above
Sequence of Notch2 (Q04721 26-1677 limits assumed): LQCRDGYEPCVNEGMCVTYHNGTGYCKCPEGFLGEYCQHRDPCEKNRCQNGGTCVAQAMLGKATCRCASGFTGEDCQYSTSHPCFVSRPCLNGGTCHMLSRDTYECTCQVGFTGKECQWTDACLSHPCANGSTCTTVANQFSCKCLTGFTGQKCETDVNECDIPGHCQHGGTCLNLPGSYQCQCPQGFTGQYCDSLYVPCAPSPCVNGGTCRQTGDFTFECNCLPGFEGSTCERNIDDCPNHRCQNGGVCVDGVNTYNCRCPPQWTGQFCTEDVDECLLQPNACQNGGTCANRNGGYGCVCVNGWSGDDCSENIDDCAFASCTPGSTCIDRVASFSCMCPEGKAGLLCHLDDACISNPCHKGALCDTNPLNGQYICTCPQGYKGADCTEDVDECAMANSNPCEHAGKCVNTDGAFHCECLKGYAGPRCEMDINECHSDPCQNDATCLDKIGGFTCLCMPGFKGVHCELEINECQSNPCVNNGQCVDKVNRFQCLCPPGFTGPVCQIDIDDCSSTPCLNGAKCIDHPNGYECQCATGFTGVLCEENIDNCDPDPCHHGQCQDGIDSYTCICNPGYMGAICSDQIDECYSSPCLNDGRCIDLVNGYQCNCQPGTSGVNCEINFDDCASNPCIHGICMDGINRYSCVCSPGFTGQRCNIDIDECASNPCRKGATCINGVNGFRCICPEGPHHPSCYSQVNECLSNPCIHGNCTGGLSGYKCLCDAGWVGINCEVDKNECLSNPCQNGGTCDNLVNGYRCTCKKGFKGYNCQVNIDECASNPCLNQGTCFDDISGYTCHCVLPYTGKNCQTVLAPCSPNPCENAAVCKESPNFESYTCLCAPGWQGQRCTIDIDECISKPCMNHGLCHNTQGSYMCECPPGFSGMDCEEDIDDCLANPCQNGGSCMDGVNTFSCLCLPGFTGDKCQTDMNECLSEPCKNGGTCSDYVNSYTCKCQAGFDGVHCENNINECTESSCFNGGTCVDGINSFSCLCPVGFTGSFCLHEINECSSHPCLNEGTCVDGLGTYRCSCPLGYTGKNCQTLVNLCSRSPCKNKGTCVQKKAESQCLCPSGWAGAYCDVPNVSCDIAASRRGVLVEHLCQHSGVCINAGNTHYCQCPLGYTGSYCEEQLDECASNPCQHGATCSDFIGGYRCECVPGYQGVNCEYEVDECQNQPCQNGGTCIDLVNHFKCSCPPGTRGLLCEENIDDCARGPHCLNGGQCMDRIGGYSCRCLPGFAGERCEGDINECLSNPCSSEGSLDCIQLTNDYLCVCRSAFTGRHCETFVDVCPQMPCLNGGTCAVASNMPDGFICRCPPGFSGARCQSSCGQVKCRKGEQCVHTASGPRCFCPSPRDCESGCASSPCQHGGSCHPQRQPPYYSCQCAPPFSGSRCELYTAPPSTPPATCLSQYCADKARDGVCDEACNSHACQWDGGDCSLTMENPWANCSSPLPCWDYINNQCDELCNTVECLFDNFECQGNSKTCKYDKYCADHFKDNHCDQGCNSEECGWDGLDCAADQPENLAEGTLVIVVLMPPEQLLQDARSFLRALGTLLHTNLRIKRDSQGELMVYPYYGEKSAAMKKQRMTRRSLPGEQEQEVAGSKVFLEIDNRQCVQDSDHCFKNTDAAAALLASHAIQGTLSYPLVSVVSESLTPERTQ
Sequence of Notch3 (Q9UM47 197-505 limits assumed): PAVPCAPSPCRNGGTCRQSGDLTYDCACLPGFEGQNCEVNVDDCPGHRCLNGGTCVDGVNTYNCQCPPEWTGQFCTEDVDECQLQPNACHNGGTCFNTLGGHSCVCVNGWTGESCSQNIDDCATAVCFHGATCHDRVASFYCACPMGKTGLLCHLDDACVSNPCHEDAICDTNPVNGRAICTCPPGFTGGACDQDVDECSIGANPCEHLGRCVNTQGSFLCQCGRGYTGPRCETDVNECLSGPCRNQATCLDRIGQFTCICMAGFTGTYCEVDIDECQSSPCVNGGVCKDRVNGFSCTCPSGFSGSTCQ

B1: Delta^MAX: engineered human DLL4 consensus variant with 10 mutations combining DLL4.v1 and DLL4.v2 mutations; sequence matches SEQ ID NO: 4/10 (protein)
chain: SSVFQLQLQEFINERGVLASGRPCEPGCRTFFRVCLKHFQAVVSPGPCTFGTVSTPVLGTNSFAVRDDSSGGGRNPLQLPLNFTWPGTFSLIIEAWHAPGDDLRPEALPPDALISKFAIQGSLAVGQNWLLDEQTSTLTRLRYSYRVICSDNYYGDNCSRLCKKRNDYFGHYVCQPDGNPSCLPGWTGEYCQQPICLSGCHEQNGYCSKPAECLCRPGWQGRLCNECIPHPGCRHGTCSTPWQCLCDEGWGGLYCDQDLNYCTHHSPCKNGATCRNSGPRSYTCTCRPGYTGVDCELELSECDSNPCRNGGSCKDQEDGYHCLCPPGYYGLHCEHSTLSCADSPCFNGGSCRERNQGANYACECPPNFTGSNCE
- increase in Notch1 activation relative to controls ([1]; co-culture with HEK293T expressing ligand, ratio 1:1): 15 fold
- increase in Notch1 activation relative to controls ([1]; ligand-coated streptavidin magnetic beads, ratio 1:20 reporter cells:beads): 21 fold
- increase in Notch1 activation relative to controls ([1]; non-specific adsorption, 0.1 ng/mm^2): 23 fold
- increase in Notch1 activation relative to controls ([1]; oriented coupling on streptavidin plates, 10 nM): 50 fold
- Notch1 activation relative to controls ([1]; yeast-displayed, ratio 1:10 reporter:yeast): did not induce a significant change
- reporter activity vs DLL4 microbeads [2]: 4.5 fold
- effect of soluble competitor on Notch1 signaling [3]: dose-dependent decreases
- effect of soluble competitor on Notch2 signaling [4]: dose-dependent decreases
- effect of soluble competitor on Notch3 signaling [5]: dose-dependent decreases
